Measured values reported in the Human Domainome abundance scans (Beltran et al. 2025).
± gives the uncertainty stated by the source.

B1: Cytoplasmic polyadenylation element-binding protein 2, residues 513 to 575; numbered along this chain, Q7Z5Q1 (parent)
chain: KRVEVKPYVLDDQMCDECQGARCGGKFAPFFCANVTCLQYYCEFCWANIHSRAGREFHKPLVK

Variants of: B1
Assay: abundance fitness (aPCA) (normalised: wild type 0, dead -1); higher = more abundant; growth selection in yeast, the domain comes from the species named
Conditions: Homo sapiens

| Variant | abundance fitness |
| --- | --- |
| KRVEVKPYVCDDQMCDECQGARCGGKFAPFFCANVTCLQYYCEFCWANIHSRAGREFHKPLVK | -0.065 ± 0.066 |
| KRVEVKPYVLDDQMCDECQGARCGGKFAPFFCANVTRLQYYCEFCWANIHSRAGREFHKPLVK | -0.55 ± 0.057 |
| KRVEVKPYVLDDQMCDECQGARCGGKFAPFFCANVACLQYYCEFCWANIHSRAGREFHKPLVK | 0.007 ± 0.045 |
| KRVEVKPYVLDDQMCDECQGARCGGKFAPFFCANVCCLQYYCEFCWANIHSRAGREFHKPLVK | -0.201 ± 0.12 |
| KRVEVKPYVLDDQMCDECQGARCGGKFAPFFCANVSCLQYYCEFCWANIHSRAGREFHKPLVK | -0.011 ± 0.041 |
| KRVEVKPYVLDDQMCDECQGARCGGKFAPFFCANVTCLQYYCEFCWASIHSRAGREFHKPLVK | 0.032 ± 0.039 |
| KRVEVKPYVLDDQMCDECQGARCGGKFAPFFCANVTCLQYYCEFCWAYIHSRAGREFHKPLVK | -0.112 ± 0.05 |
| KRVEVKPYVLDDQMCDECQGARCGGKFAPFFCRNVTCLQYYCEFCWANIHSRAGREFHKPLVK | -0.124 ± 0.041 |
| KRVEVKPYVLDDQMCDECQGARCGGKFAPFFCWNVTCLQYYCEFCWANIHSRAGREFHKPLVK | -0.28 ± 0.042 |
| KRVEVKPYVLDDQMCDECQGARCGGKFAPFFCGNVTCLQYYCEFCWANIHSRAGREFHKPLVK | -0.047 ± 0.035 |
| KRVEVKPYVLDDQMCDECQGARCGGKFIPFFCANVTCLQYYCEFCWANIHSRAGREFHKPLVK | -0.337 ± 0.065 |
| KRVEVKPYVLDDQMCDECQGARCGGKFQPFFCANVTCLQYYCEFCWANIHSRAGREFHKPLVK | -0.366 ± 0.079 |
| KRVEVKPYVLDDQMCDTCQGARCGGKFAPFFCANVTCLQYYCEFCWANIHSRAGREFHKPLVK | -0.22 ± 0.062 |
| KRVEVKPYVLDDQMCDECQGARCGGKFAPFFCANVTCLQYYCEFCWANIHHRAGREFHKPLVK | -0.054 ± 0.07 |
| KVVEVKPYVLDDQMCDECQGARCGGKFAPFFCANVTCLQYYCEFCWANIHSRAGREFHKPLVK | -0.187 ± 0.057 |
| KRVEVKPYVLDDQMCDECQGARCGGKFAPFFCANVTCLQYYCTFCWANIHSRAGREFHKPLVK | -0.149 ± 0.06 |
| KRVEVKPYVLDDQMCDECQGARCGGKFAPFFCANVTCLQYYCEFCWANIHSRAHREFHKPLVK | -0.123 ± 0.094 |
| KRVEVKPYVLDDQMCDECQGARCGGKFAPFFCANVTCLQYYCEFCWANIHSRALREFHKPLVK | -0.146 ± 0.046 |
| KRVEVKPYVLDDSMCDECQGARCGGKFAPFFCANVTCLQYYCEFCWANIHSRAGREFHKPLVK | -0.144 ± 0.041 |
| KRVEVKPMVLDDQMCDECQGARCGGKFAPFFCANVTCLQYYCEFCWANIHSRAGREFHKPLVK | -0.365 ± 0.087 |
| KRVEVKPYVLDDQMCDECQGARCGGKFAPFFCANVTCVQYYCEFCWANIHSRAGREFHKPLVK | -0.094 ± 0.038 |

| Variant | abundance fitness |
| --- | --- |
| KRVEVKPYVLDDQMCDECQGARCGGKFAPFFCANVTCFQYYCEFCWANIHSRAGREFHKPLVK | -0.076 ± 0.072 |
| KRVEVKPYVLDDQMCDECQGARCGGKFAPFFCANVTCLEYYCEFCWANIHSRAGREFHKPLVK | -0.13 ± 0.06 |
| KRVEVKPYVLDDQMCDECQGARCGGKFAPFFCANVTCLHYYCEFCWANIHSRAGREFHKPLVK | 0.089 ± 0.083 |
| KRVEVKPYVLDDQMCDECQGARCGGKFAPFFTANVTCLQYYCEFCWANIHSRAGREFHKPLVK | -0.779 ± 0.06 |
| KRVEVKPYVLDDQMCDECQGARCGGKFAPFFWANVTCLQYYCEFCWANIHSRAGREFHKPLVK | -0.929 ± 0.13 |
| KRVEVKPYVLDDQMCDECQGARCGGKFAPFFCANVTCLQYYCEFCWANIHSRAGLEFHKPLVK | 0.04 ± 0.035 |
| KRVEVKPYVLDDQMCDECQGARMGGKFAPFFCANVTCLQYYCEFCWANIHSRAGREFHKPLVK | -0.188 ± 0.063 |
| KRVEVKPYVLDDQMCDECQGARCGVKFAPFFCANVTCLQYYCEFCWANIHSRAGREFHKPLVK | -0.323 ± 0.044 |
| KRVEVKPYVLDDQMCDECQGARCGKKFAPFFCANVTCLQYYCEFCWANIHSRAGREFHKPLVK | 0.016 ± 0.033 |
| KRVEVKPYVLDDQQCDECQGARCGGKFAPFFCANVTCLQYYCEFCWANIHSRAGREFHKPLVK | -0.036 ± 0.053 |
| KRVEVKPYVLDDQDCDECQGARCGGKFAPFFCANVTCLQYYCEFCWANIHSRAGREFHKPLVK | 0.039 ± 0.086 |
| KRVEVKPYVLDDQMCDECQGARCGGKFAPFFCANVTCLQYYCEFCWANIHSRWGREFHKPLVK | -0.287 ± 0.049 |
| KRMEVKPYVLDDQMCDECQGARCGGKFAPFFCANVTCLQYYCEFCWANIHSRAGREFHKPLVK | -0.091 ± 0.077 |
| KRPEVKPYVLDDQMCDECQGARCGGKFAPFFCANVTCLQYYCEFCWANIHSRAGREFHKPLVK | -0.028 ± 0.056 |
| KRVEVKPYVLDDQMCDECQGARCGGKFAPFFCAWVTCLQYYCEFCWANIHSRAGREFHKPLVK | -0.2 ± 0.072 |
| KRVEVQPYVLDDQMCDECQGARCGGKFAPFFCANVTCLQYYCEFCWANIHSRAGREFHKPLVK | -0.083 ± 0.044 |
| KRVEVNPYVLDDQMCDECQGARCGGKFAPFFCANVTCLQYYCEFCWANIHSRAGREFHKPLVK | 0.006 ± 0.063 |
| KRVEVKPYVLDDQMVDECQGARCGGKFAPFFCANVTCLQYYCEFCWANIHSRAGREFHKPLVK | -0.587 ± 0.055 |
| KRVETKPYVLDDQMCDECQGARCGGKFAPFFCANVTCLQYYCEFCWANIHSRAGREFHKPLVK | 0.006 ± 0.044 |
| KRVEVKPYVLDDQMCDECQGARCGGKFAPFFCANVTCLQYYCEFCWANIHSRAGRMFHKPLVK | -0.154 ± 0.052 |
| KRVEVKPYVLDDQMCDECQGARCGGKFAPFFCANVTCLQYYDEFCWANIHSRAGREFHKPLVK | -0.558 ± 0.094 |
